Legend:
[1] = molecular target: T1, soluble E-selectin (control protein) (UniProt P16581 22-556, limits assumed); experiment: SPR (Biacore 3000), soluble E-selectin coupled to CM-5 chip, antibody injected
T1 sequence (looked up): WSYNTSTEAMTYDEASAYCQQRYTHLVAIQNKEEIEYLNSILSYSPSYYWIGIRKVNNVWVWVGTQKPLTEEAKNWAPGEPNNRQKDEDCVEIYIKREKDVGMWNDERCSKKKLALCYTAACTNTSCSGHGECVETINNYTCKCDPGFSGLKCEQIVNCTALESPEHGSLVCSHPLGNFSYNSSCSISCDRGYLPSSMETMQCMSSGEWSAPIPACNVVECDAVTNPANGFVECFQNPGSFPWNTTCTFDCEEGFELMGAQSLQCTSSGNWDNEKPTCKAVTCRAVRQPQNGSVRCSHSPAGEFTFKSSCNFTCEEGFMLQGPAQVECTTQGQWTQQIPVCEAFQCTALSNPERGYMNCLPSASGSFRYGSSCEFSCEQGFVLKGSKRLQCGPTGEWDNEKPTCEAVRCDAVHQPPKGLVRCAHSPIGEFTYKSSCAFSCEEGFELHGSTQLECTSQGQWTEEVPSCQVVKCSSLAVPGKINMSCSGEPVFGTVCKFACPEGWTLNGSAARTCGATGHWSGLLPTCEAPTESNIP
Experimental: (§1) All experiments were performed on a Biacore 3000, at 25° C., using 20 mM MOPS, pH 7.5, 150 mM NaCl, 1.5 mM CaCl₂ and 0.005% Tween-20 as running buffer. Low densities of soluble P-selectin or soluble E-selectin (control protein) were covalently coupled on two different surfaces of a CM-5 chip according to the manufacturer's instructions. The coating density was selected with the aim of achieving a maximum binding response of 100-200 RUs.
(§2) Solutions containing G1aggr and the G1 mouse parental monoclonal antibody were diluted and injected onto the CM-5 chip at a flow rate of 30 μl/min for 4 minutes, followed by 3 min to allow for dissociation, at which time the bound antibody was eluted with a 10 μl injection of 10 mM Acetate pH 4.5, 100 mM NaCl at a flow rate of 10 μl/min. A series of concentrations of both antibodies were injected over the soluble P-selectin and the soluble E-selectin surfaces until saturating binding was observed.
There was no binding observed for either antibody to E-selectin.

soluble P-selectin = molecular target: T2, soluble P-selectin (UniProt P16109 42-771, limits assumed); experiment: SPR (Biacore 3000, 25 C), soluble P-selectin coupled to CM-5 chip, antibody as analyte, bivalent analyte model
T2 sequence (looked up): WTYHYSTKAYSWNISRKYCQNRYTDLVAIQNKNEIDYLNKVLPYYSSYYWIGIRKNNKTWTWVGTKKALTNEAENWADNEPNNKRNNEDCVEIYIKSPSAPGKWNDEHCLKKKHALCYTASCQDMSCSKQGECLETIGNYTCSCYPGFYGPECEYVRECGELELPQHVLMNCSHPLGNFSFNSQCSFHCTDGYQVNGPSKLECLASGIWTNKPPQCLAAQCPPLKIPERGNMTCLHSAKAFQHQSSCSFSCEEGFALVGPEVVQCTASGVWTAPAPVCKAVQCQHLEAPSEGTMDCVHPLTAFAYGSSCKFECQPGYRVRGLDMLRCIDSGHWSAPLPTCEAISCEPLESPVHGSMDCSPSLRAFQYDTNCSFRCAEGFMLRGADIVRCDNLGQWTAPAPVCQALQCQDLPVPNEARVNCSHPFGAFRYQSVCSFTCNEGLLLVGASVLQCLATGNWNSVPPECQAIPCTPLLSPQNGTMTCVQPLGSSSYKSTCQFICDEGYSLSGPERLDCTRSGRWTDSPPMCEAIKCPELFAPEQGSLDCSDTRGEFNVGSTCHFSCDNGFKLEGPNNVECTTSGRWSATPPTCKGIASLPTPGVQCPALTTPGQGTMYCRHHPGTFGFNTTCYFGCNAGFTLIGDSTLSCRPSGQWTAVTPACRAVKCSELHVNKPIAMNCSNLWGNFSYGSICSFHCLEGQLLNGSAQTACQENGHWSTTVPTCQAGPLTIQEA
Experimental: as §1, §2
The data were analyzed using the Biaevaluation software v 4.1. Sensorgrams from the different cycles were overlaid and the data for all curves of one antibody were simultaneously fitted to a Bivalent analyte model (see FIG. 5). The equilibrium affinity was calculated from the on-rates and off-rates obtained from this analysis.

B1: humanized G1 antibody design labeled "aggressive" (G1aggr) (antibody, V domains shown)
VH: QVQLVQSGAEVKKPGASVKVSCKVSGYTFTSYDINWVRQAPGKGLEWMGWIYPGDGSIKYNEKFKGRVTMTVDKSTDTAYMELSSLRSEDTAVYYCARRGEYGNYEGAMDYWGQGTLVTVSS
VL: DIQMTQSPSSLSASVGDRVTITCKASQSVDYDGHSYMNWYQQKPGKAPKLLIYAASNLESGVPSRFSGSGSGTDFTLTISSLQPEDFATYYCQQSDENPLTFGGGTKVEIK
notes: also called humanized G1aggr; humanized antibody G1aggr
- binding result [1]: no binding
- Kd (soluble P-selectin): 31.1 nM

B2: G1 mouse parental monoclonal antibody (antibody, V domains shown)
VH: QVQLQQSGPELVKPGALVKISCKASGYTFTSYDINWVKQRPGQGLEWIGWIYPGDGSIKYNEKFKGKATLTVDKSSSTAYMQVSSLTSENSAVYFCARRGEYGNYEGAMDYWGQGTTVTVSS
VL: DIVLTQDPASLAVSLGQRATISCKASQSVDYDGHSYMNWYQQKPGQPPKLLIYAASNLESGIPARFSGSGSGTDFTLNIHPVEEEDAATYYCQQSDENPLTFGTGTKLELK
notes: Mouse monoclonal antibody from a hybridoma; also called murine mAb G1; parental G1 murine antibody
- binding result [1]: no binding
- Kd (soluble P-selectin): 24.4 nM

— patent US20110243926A1 (published 2011)
